Assay results from patent US20260242483A1.

Legend:
[1] = biological target: human BTN3A as expressed on human cells (PBMC, Daudi, tumour cell lines, HUVEC, HEK293T WT) (human); experiment: cell-based or functional assay
[2] = biological target: human BTN3A as expressed on human cells (PBMC, Daudi, tumour cell lines, HUVEC, HEK293T WT) (human); experiment: flow cytometry on human PBMCs
[3] = biological target: cynomolgus BTN3A as expressed on cynomolgus PBMCs (cynomolgus monkey (Macaca fascicularis)); experiment: flow cytometry on cynomolgus PBMCs
[4] = biological target: human BTN3A as expressed on human cells (PBMC, Daudi, tumour cell lines, HUVEC, HEK293T WT) (human); experiment: flow cytometry on Daudi lymphoma cells
[5] = biological target: recombinant human BTN3A1-His (Sino Biological Cat. No. 15973-H08H) (human) (UniProt O00481); experiment: SPR Biacore multi-cycle kinetics; antibody captured on Protein A, BTN3A1-His analyte, 1:1 fit
Sequence of recombinant human BTN3A1-His (Sino Biological Cat. No. 15973-H08H) (human) (O00481 30-254 limits assumed): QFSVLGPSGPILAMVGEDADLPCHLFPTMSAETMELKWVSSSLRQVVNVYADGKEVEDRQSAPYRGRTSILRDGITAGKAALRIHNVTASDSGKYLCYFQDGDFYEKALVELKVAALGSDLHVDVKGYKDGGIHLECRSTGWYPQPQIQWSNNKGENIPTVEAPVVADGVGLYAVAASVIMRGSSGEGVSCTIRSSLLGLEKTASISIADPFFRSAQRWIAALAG

- Functional assay (AML resistant) (γδT cell-based, EC50, µg/mL) [1]: 0.18 µg/mL
- Functional assay (AML sensitive) (γδT cell-based, EC50, µg/mL) [1]: 0.05 µg/mL
- Functional assay (Daudi) (γδT cell-based, EC50, µg/mL) [1]: 0.02 µg/mL
- EC50 [2]: 3.02 µg/mL
- EC50 [3]: 4.06 µg/mL
- EC50 [4]: 1.19 µg/mL
- Kd [5]: 234 pM
Substance: Chimeric 20.1 (VH0/Vκ0) IgG4 (S241P, L248E) (antibody)
